Substitutions are numbered along the chain they refer to. In names and notes the source's numbering stands.
B1: MA 09-G10 CC (C4K) (antibody, V domains shown)
VH: QITLKESGPTLVKPTQTLTLTCTFSGFSFTTHKMGVDWIRQPPGKCLEWLAGIHIYDDKRYSPSLQSRLTITKDTSKNQVVLTMTNMDPVDTATYYCAYRRYNWNYENWFDPWGQGTLVTVSS
VL: DIQMTQSPSSLSASVGDRVTITCQASQDISNYFNWYQQKPGKAPKLLIYAASSLQSGVPSRFSGSGSGTDFTLTISSLQPEDFATYYCQQSYITPFTFGCGTKVEIK
B2: MA 09-H11 CC (I8L) (antibody, V domains shown)
VH: B1 VH with G52L, H54Y, I55W, Y56N
VL: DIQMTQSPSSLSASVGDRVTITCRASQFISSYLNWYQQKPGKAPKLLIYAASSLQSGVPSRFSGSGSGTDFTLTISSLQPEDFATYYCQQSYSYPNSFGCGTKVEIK
B3: MA 09-H10 CC (B6N) (antibody, V domains shown)
VH: B1 VH with G52L, H54Y, I55W, Y56N
VL: B1 VL with F33L, S65R, I93T, T94P, F96T
B4: MA 09-F11 CC (L6Q) (antibody, V domains shown)
VH: B1 VH with T10M, G52L, H54Y, I55W, Y56N
VL: B1 VL with S9D, F33L, I93M, T94W, F96T, T97I
B5: MA 09-F12 CC (D1U) (antibody, V domains shown)
VH: B1 VH with T10A, G52L, H54Y, I55W, Y56N
VL: B1 VL with F33L, S65R, I93Y, T94Y, F96T, T97L
B6: MA 03-G10_AS CC (N3H) (antibody, V domains shown)
VH: EVQLLESGGGLVQPGGSLRLSCAASGFTFSSYAMSWVRQAPGKCLEWVSAISGSGGGTYYAASVKGRFTISRDNSKNTLYLQMSSLRAEDTAVYYCATGKGVHLGFDYWGQGTLVTVSS
VL: SYVLTQPPSVSVAPGQTARITCGGNNIGSKSVHWYQQKPGQAPVMVVYDDNDRPSGIPERFSGSNSGNTATLTISRVEAGDEADYYCQVWDYSGQRQVFGCGTKLTVL
B7: MA 98-G12_AS CC (Q4Z) (antibody, V domains shown)
VH: B6 VH with Y32H, Y60N, S84N, V93A, A97V
VL: B6 VL with S66F, T73I, S93F, G94S, Q95M, R96T, Q97H
B8: MA 03-D8 AS CC (L7E) (antibody, V domains shown)
VH: B6 VH with Y32H, A50T, S84N
VL: B6 VL with S66F, T73I, S93R, G94T, Q95L, R96D, Q97W
B9: MA 98-C7 CC (Y8P) (antibody, V domains shown)
VH: B6 VH with Y32H, A50S, S84N
VL: B6 VL with G94P, Q95L, Q97H
B10: MA 10-G10 AS CC (T1I) (antibody, V domains shown)
VH: B6 VH with Y32H, Y60N, S84N
VL: B6 VL with S93V, G94A, Q95P, Q97H
B11: MA 10-H1 CC (T9K) (antibody, V domains shown)
VH: EVQLVESGGGLVQPGGSLRLSCAASGFTFSNAWMSWVRQAPGKCLEWVGRITSGIYGGTTDYAAPVKGRFTISRDDSKNTLYLQMNSLKTEDTAVYYCTTPSYSGSYYNYFSVMDVWGQGTTVTVSS
VL: DIQMTQSPSSLSASVGDRVTITCRTSQSISSYLNWYQQKPGRAPKLLIFAASSLQSGVPSRFSGSGSGTDFTLTISSLQPEDFATYYCQQTYSMPFTFGCGTKVDIK
B12: MA 10-B5 CC (H6H) (antibody, V domains shown)
VH: B11 VH with T52R, G54R, I55S, Y82F
VL: B11 VL with S56G, D105E
B13: MA 09-E2 CC (V8T) (antibody, V domains shown)
VH: B11 VH with T52K, G54K, I55T, Y82F
VL: B11 VL with S56G, T91S, M94S, D105E
B14: MA 09-G11 CC (Y9Q) (antibody, V domains shown)
VH: B1 VH with T10M, G52L, H54Y, I55W, Y56N
VL: B1 VL with Q24R, D28F, N31S, F33L, S65R, I93Q, T94S, F96T
B15: MA 09-C7 CC (K9T) (antibody, V domains shown)
VH: B1 VH with I2V, T10A, G52E, I55S, Y56E
VL: B1 VL with Q24R, D28S
B16: MA SG-F28 CC (D9R) (antibody, V domains shown)
VH: QVQLQESGPGLVKPSQTLSLTCTVSGDSISSNPYYWSWIRQHPGKCLEWIGYISYSGITNYNPSLKSRVTMSVDTSKNQFSLKLTSLTAADTAVYYCAREKMWFGVLNYYYGMDVWGQGTTVTVSS
VL: DIVMTQTPLSLPVTPGEPASISCRSSQSLLHRSGYNYLDWYLQKPGQSPQLLIYLGSNRASGVPDRFSGSGSGTDFTLKISRVEAGDVGVYYCMQALQTPWTFGCGTKVEIK
B17: MA 88-B3-F9 CC (Y4E) (antibody, V domains shown)
VH: QVQLVESGGGLVKPGGSLRLSCAASGFTFSDYYMSWIRQAPGKCLEWVSYISKSSYTVTYADAVKGRFTISRDNAKNSLYLQMNSLRAEDTAVYYCATYNYGHFDYWGQGTLVTVSS
VL: SYVLTQPPSVSVAPGQTARITCGGNNIGSKSVHWYQQKPGQAPVLVVYDDADRPSGIPERFSGSNSGNTATLTISRVEAGDEADYYCQVWDASAGYGVVFGCGTKLTVL
B18: MA 81-B9 CC (U4L) (antibody, V domains shown)
VH: QVQLQESGPGLVKPSETLSLTCTVSGDSISSSRYYWGWIRQPPGKCLEWIGSIYYSGSTYYNPSLKSRVTISVDTSKNQFSLKLSSVTAADTAVYYCARGIFGVITYFDYWGQGTLVTVSS
VL: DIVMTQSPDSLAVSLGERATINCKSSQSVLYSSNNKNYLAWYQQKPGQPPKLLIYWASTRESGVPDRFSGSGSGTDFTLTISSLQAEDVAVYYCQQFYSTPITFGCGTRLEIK

Target: MAGEB2 peptide … / HLA-A*02:01 / b2m (human)
Assay: FACS

Binder | Kd
B1 | 0.8 nM
B2 | 0.5 nM
B3 | 0.6 nM
B4 | 0.6 nM
B5 | 0.5 nM
B6 | 0.9 nM
B7 | 0.9 nM
B8 | 0.5 nM
B9 | 0.7 nM
B10 | 1.7 nM
B11 | 1.2 nM
B12 | 0.7 nM
B13 | 0.7 nM
B14 | 0.6 nM
B15 | 0.9 nM
B16 | 76.8 nM
B17 | 74.1 nM
B18 | 18.8 nM

— patent publication US12312412 (dated 2025)
